In IntAct's records for PubMed 35512704:

B1: Mothers against decapentaplegic homolog 4 (Homo sapiens), Q13485 (parent)
chain: MDNMSITNTPTSNDACLSIVHSLMCHRQGGESETFAKRAIESLVKKLKEKKDELDSLITAITTNGAHPSKCVTIQRTLDGRLQVAGRKGFPHVIYARLWRWPDLHKNELKHVKYCQYAFDLKCDSVCVNPYHYERVVSPGIDLSGLTLQSNAPSSMMVKDEYVHDFEGQPSLSTEGHSIQTIQHPPSNRASTETYSTPALLAPSESNATSTANFPNIPVASTSQPASILGGSHSEGLLQIASGPQPGQQQNGFTGQPATYHHNSTTTWTGSRTAPYTPNLPHHQNGHLQHHPPMPPHPGHYWPVHNELAFQPPISNHPAPEYWCSIAYFEMDVQVGETFKVPSSCPIVTVDGYVDPSGGDRFCLGQLSNVHRTEAIERARLHIGKGVQLECKGEGDVWVRCLSDHAVFVQSYYLDREAGRAPGDAVHKIYPSAYIKVFDLRQCHRQMQQQAATAQAAAAAQAAAVAGNIPGPGSVGGIAPAISLSAAAGIGVDDLRRLCILRMSFVKGWGPDYPRQSIKETPCWIEIHLHRALQLLDEVLHTMPIADPQPLD
partner: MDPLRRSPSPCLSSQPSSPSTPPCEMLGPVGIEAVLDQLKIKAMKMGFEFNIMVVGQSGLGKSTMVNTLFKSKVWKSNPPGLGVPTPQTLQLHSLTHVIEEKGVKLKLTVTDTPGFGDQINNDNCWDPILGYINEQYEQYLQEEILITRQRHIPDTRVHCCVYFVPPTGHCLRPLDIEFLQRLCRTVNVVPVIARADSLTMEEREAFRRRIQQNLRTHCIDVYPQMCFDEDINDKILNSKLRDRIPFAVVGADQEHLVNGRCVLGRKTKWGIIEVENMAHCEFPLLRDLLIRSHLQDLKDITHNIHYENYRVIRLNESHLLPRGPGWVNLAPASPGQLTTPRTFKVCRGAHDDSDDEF
B2: Mothers against decapentaplegic homolog 4 (Homo sapiens), Q13485 (parent)
chain: B1 chain
partner: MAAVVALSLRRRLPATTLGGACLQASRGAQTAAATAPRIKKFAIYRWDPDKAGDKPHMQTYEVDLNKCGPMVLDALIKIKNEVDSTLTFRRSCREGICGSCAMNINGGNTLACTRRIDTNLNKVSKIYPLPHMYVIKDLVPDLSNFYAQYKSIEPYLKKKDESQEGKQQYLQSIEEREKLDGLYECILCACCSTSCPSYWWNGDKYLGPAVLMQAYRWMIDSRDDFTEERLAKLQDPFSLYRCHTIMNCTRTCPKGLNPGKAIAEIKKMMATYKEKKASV
B3: Mothers against decapentaplegic homolog 4 (Homo sapiens), Q13485 (parent)
chain: B1 chain
partner: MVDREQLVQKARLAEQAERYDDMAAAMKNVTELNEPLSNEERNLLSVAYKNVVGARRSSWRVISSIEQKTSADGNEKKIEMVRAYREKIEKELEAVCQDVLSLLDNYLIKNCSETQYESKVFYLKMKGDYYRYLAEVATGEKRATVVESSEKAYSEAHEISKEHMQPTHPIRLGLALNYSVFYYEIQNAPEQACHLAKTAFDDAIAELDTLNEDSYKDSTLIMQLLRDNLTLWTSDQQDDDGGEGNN
B4: Speckle-type POZ protein (Homo sapiens), O43791 (parent)
chain: MSRVPSPPPPAEMSSGPVAESWCYTQIKVVKFSYMWTINNFSFCREEMGEVIKSSTFSSGANDKLKWCLRVNPKGLDEESKDYLSLYLLLVSCPKSEVRAKFKFSILNAKGEETKAMESQRAYRFVQGKDWGFKKFIRRDFLLDEANGLLPDDKLTLFCEVSVVQDSVNISGQNTMNMVKVPECRLADELGGLWENSRFTDCCLCVAGQEFQAHKAILAARSPVFSAMFEHEMEESKKNRVEINDVEPEVFKEMMCFIYTGKAPNLDKMADDLLAAADKYALERLKVMCEDALCSNLSVENAAEILILADLHSADQLKTQAVDFINYHASDVLETSGWKSMVVSHPHLVAEAYRSLASAQCPFLGPPRKRLKQS
partner: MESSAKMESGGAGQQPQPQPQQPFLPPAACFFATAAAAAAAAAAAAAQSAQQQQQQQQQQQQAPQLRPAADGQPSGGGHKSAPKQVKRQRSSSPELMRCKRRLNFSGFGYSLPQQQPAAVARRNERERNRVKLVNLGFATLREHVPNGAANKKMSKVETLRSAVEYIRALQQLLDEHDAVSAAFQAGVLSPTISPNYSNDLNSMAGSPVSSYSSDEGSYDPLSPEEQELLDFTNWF
B5: Mothers against decapentaplegic homolog 4 (Homo sapiens), Q13485 (parent)
chain: B1 chain
partner: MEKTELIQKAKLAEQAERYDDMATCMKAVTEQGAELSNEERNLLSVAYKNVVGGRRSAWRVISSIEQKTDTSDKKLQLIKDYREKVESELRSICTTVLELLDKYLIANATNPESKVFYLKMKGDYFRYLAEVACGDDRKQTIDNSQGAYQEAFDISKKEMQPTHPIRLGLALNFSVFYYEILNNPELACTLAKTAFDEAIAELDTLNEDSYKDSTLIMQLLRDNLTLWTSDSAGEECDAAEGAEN
B6: Mothers against decapentaplegic homolog 4 (Homo sapiens), Q13485 (parent)
chain: B1 chain
partner: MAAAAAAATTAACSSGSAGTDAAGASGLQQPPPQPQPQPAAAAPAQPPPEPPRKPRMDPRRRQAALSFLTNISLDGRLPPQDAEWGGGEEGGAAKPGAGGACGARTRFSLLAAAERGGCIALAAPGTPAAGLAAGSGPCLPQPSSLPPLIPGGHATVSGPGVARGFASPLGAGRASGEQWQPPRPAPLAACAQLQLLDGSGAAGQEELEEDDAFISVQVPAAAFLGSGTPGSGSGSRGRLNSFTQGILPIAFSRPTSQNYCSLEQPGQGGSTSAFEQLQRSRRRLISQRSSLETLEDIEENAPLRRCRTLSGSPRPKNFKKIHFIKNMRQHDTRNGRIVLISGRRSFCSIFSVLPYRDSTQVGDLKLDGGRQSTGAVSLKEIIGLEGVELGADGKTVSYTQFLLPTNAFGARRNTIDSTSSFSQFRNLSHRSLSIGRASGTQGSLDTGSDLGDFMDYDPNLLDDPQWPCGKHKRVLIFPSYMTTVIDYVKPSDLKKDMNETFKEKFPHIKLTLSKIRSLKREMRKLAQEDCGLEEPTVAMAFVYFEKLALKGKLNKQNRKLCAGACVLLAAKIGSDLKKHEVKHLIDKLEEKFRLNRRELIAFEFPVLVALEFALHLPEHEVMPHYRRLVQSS
B7: Mothers against decapentaplegic homolog 4 (Homo sapiens), Q13485 (parent)
chain: B1 chain
partner: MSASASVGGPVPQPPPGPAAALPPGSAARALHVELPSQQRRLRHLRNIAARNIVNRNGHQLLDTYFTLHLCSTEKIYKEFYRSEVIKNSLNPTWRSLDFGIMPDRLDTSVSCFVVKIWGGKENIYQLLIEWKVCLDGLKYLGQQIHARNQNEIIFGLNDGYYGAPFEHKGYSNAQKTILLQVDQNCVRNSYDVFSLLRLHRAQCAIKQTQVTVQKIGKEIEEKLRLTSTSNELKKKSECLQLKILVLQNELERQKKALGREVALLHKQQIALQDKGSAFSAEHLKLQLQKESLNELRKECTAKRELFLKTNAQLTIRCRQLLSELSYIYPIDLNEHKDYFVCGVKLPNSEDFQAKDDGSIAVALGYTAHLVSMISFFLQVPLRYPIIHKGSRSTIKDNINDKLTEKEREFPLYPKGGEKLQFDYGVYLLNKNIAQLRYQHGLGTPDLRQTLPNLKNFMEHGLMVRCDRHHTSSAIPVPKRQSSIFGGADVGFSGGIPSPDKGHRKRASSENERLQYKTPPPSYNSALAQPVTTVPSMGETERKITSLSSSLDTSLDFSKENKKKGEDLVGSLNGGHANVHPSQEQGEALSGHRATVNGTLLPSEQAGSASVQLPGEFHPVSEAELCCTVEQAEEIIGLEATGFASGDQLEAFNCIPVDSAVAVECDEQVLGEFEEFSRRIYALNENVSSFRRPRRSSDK

Variants of: B1
Conditions: with sep12_human SEPTIN12, Q8IYM1

effect of a mutation on the interaction	Variant
with no effect	R361C

Variants of: B2
Conditions: with sdhb_human SDHB

effect of a mutation on the interaction	Variant
with no effect	R361C

Variants of: B2
Conditions: with sdhb_human SDHB
Remark: another data set of the same source

effect of a mutation on the interaction	Variant
with no effect	G386D

Variants of: B2
Conditions: with sdhb_human SDHB
Remark: another data set of the same source

effect of a mutation on the interaction	Variant
increasing interaction strength	G386D

Variants of: B3
Conditions: with 1433g_human YWHAG

effect of a mutation on the interaction	Variant
with no effect	D351H

Variants of: B3
Conditions: with 1433g_human YWHAG
Remark: another data set of the same source

effect of a mutation on the interaction	Variant
with no effect	R361C

Variants of: B4
Conditions: with ascl1_human ASCL1, P50553

effect of a mutation on the interaction	Variant
with no effect	MSRVPSPPPPAEMSSGPVAESWCYTQIKVVKFSYMWTINNFSFCREEMGEVIKSSTFSSGANDKLKWCLRVNPKGLDEESKDYLSLYLLLVSCPKSEVRAKCKFSILNAKGEETKAMESQRAYRFVQGKDWGFKKFIRRDFLLDEANGLLPDDKLTLFCEVSVVQDSVNISGQNTMNMVKVPECRLADELGGLWENSRFTDCCLCVAGQEFQAHKAILAARSPVFSAMFEHEMEESKKNRVEINDVEPEVFKEMMCFIYTGKAPNLDKMADDLLAAADKYALERLKVMCEDALCSNLSVENAAEILILADLHSADQLKTQAVDFINYHASDVLETSGWKSMVVSHPHLVAEAYRSLASAQCPFLGPPRKRLKQS [F102C]

Variants of: B4
Conditions: with ascl1_human ASCL1, P50553
Remark: another data set of the same source

effect of a mutation on the interaction	Variant
with no effect	MSRVPSPPPPAEMSSGPVAESWCYTQIKVVKFSYMWTINNFSFCREEMGEVIKSSTFSSGANDKLKWCLRVNPKGLDEESKDYLSLYLLLVSCPKSEVRAKFKFSILNAKGEETKAMESQRAYRFVQGKDWGLKKFIRRDFLLDEANGLLPDDKLTLFCEVSVVQDSVNISGQNTMNMVKVPECRLADELGGLWENSRFTDCCLCVAGQEFQAHKAILAARSPVFSAMFEHEMEESKKNRVEINDVEPEVFKEMMCFIYTGKAPNLDKMADDLLAAADKYALERLKVMCEDALCSNLSVENAAEILILADLHSADQLKTQAVDFINYHASDVLETSGWKSMVVSHPHLVAEAYRSLASAQCPFLGPPRKRLKQS [F133L]

Variants of: B5
Conditions: with 1433t_human YWHAQ

effect of a mutation on the interaction	Variant
with no effect	G386D

Variants of: B5
Conditions: with 1433t_human YWHAQ
Remark: another data set of the same source

effect of a mutation on the interaction	Variant
with no effect	R361H

Variants of: B5
Conditions: with 1433t_human YWHAQ
Remark: another data set of the same source

effect of a mutation on the interaction	Variant
with no effect	R361C

Variants of: B5
Conditions: with 1433t_human YWHAQ
Remark: another data set of the same source

effect of a mutation on the interaction	Variant
with no effect	D351H

Variants of: B6
Conditions: with cabl1_human CABLES1, Q8TDN4

effect of a mutation on the interaction	Variant
with no effect	G386D

Variants of: B7
Conditions: with uvrag_human UVRAG

effect of a mutation on the interaction	Variant
with no effect	R361C

Variants of: B7
Conditions: with uvrag_human UVRAG
Remark: another data set of the same source

effect of a mutation on the interaction	Variant
with no effect	R361H

Variants of: B7
Conditions: with uvrag_human UVRAG
Remark: another data set of the same source

effect of a mutation on the interaction	Variant
with no effect	D351H
